Each block holds one molecule with its values, some of them ahead of it.
What was measured:
human XIAP = target: T1, human XIAP (Homo sapiens, UniProt P98170); assay: In vitro ubiquitination / self-conjugation reaction with 35S-labeled XIAP; format: biochemical; details: 35S-XIAP; FIG. 8, 15B, 16, 17
T1 construct: host or cells: cell-free in vitro transcription-translation; the partner His-UBCH5C was made in E. coli BL21 (pLysS)
Procedure: ^35S-methionine labeled mutant and wild type DIAP1, or wild type XIAP were generated in an in vitro transcription-translation system (Promega) from diap1-pET14b, diap1^21-4S pET14b and xiap pcDNA3.1 plasmids. For purification of His-UBCD1 and His-UBCH5C, ubcD1-pET14b and ubcH5C-pT7-7 were expressed in BL21 (pLysS) and purified on a Ni-column according to the manufacturer's protocol (Novagen). In vitro ubiquitination assays were carried out in a total volume of 12.5 μl and contained: ^35S-methionine labeled wild type or mutant DIAP1 or Wild type XIAP (approximately 10,000 cpm), and 250ng E1 (made in baculovirus; vector is the kind gift of Dr. Kazuhiro Iwai, University of Osaka, Osaka, Japan). Unless otherwise stated, 1.2 μg His-UBCD1 or His-UBCH5C was used in each reaction. Reaction mixture contained also 40 mM Tris-HCl, pH 7.6, 5 mM MgCl2, 1 mM DTT, 5 μg ubiquitin, 100 ng Ubiquitin-aldehyde, 2 mM ATPγS [Adenosine 5′-O-(3-thiotriphosphate)]. Reactions were incubated for 50 min at 37° C., and resolved, following addition of a sample buffer on SDS-PAGE (10%). Gels were dried and proteins visualized via Phosphorimaging (Fuji, Japan).

DIAP1 = target: T2, DIAP1 (Drosophila melanogaster, UniProt Q24306); assay: In vitro ubiquitination / self-conjugation reaction with 35S-labeled DIAP1; format: biochemical; details: 35S-DIAP1 with E1, UBCD1 and ubiquitin; SDS-PAGE; FIG. 13-15A
T2 construct: The full length ORF of diap1 was subcloned into the BamH1 site of pET14b (Novagen); His (N); host or cells: cell-free in vitro transcription-translation (reticulocyte lysate); the partner His-UBCD1 was made in E. coli BL21 (pLysS)
T2 sequence (Q24306 1-438): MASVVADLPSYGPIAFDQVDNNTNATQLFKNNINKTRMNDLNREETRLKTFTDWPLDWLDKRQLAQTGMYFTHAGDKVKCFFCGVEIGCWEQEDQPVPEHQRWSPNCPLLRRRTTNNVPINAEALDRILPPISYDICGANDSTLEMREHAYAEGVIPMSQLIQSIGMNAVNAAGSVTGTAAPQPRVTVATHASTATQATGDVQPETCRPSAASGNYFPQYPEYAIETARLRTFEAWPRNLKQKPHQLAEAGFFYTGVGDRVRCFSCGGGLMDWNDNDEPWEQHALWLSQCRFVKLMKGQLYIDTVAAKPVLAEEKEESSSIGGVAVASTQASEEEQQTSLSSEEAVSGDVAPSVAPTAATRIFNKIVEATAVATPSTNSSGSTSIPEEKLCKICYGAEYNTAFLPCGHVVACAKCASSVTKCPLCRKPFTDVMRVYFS
Procedure: ^35S-methionine labeled mutant and wild type DIAP1, or wild type XIAP were generated in an in vitro transcription-translation system (Promega) from diap1-pET14b, diap1^21-4S pET14b and xiap pcDNA3.1 plasmids. For purification of His-UBCD1 and His-UBCH5C, ubcD1-pET14b and ubcH5C-pT7-7 were expressed in BL21 (pLysS) and purified on a Ni-column according to the manufacturer's protocol (Novagen). In vitro ubiquitination assays were carried out in a total volume of 12.5 μl and contained: ^35S-methionine labeled wild type or mutant DIAP1 or Wild type XIAP (approximately 10,000 cpm), and 250ng E1 (made in baculovirus; vector is the kind gift of Dr. Kazuhiro Iwai, University of Osaka, Osaka, Japan). […]
In order to determine whether both amino acid consensus sequences described above are essential for IAP degradation, peptides were generated, with amino acid sequences as described in Tables 1, 3 and 5 above, containing one of each amino acid consensus sequence, or both, and their ability to stimulate in vitro IAP ubiquitination was assessed (FIG. 13). ^35S-methionine labeled wild type DIAP1 was incubated with 250 ng E1 and ubiquitin, with or without the addition of the RPR wild type protein, or peptides containing the RHG amino acid consensus sequence of the RPR HID or GRIM proteins, and the reaction products were resolved by SDS-PAGE.

T1 sequence (P98170 whole entry): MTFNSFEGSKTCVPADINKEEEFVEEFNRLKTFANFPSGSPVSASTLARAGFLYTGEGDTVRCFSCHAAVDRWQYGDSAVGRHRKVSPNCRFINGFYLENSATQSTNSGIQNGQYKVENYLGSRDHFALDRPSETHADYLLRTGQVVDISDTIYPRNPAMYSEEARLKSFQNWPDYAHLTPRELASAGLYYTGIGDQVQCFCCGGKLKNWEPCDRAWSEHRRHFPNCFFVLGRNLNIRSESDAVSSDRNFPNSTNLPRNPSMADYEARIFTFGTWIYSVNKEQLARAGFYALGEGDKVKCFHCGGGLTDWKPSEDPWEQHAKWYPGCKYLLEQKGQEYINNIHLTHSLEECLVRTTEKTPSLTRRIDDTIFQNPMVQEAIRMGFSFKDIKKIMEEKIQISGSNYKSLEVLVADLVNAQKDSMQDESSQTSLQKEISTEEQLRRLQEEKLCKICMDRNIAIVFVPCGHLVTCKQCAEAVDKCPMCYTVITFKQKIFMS

stimulation of XIAP auto-ubiquitination / self-conjugation in vitro (human XIAP): greatest effect
Molecule: AVAFYIPDQATLLR QWRFLATVVL (AVAFYIPDQATLLRQWRFLATVVL; Drosophila melanogaster) [Peptide R15W, Reaper RHG plus Trp-box peptide]

stimulation of XIAP auto-ubiquitination / self-conjugation in vitro (human XIAP): greatest effect
Molecule: AVPFYLPE QWRFLATVVL (AVPFYLPEQWRFLATVVL; Drosophila melanogaster) [Peptide H9-W, Hid RHG plus Reaper Trp-box peptide]

stimulation of IAP (DIAP1) self-conjugation / auto-ubiquitination in vitro (DIAP1): resulted in auto-ubiquitination
stimulation of XIAP auto-ubiquitination / self-conjugation in vitro (human XIAP): strongly stimulated
B1: Reaper: wild type Drosophila IAP inhibitor (IAPi) protein REAPER (RPR) (protein)
chain: MAVAFYIPDQATLLREAEQKEQQILRLRESQWRFLATVVLETLRQYTSCHPKTGRKSGKYRKPSQ
